Experimental findings from patent publication US20220175781A1, “CD40L COMPOSITIONS AND METHODS FOR TUNABLE REGULATION” (Obsidian Therapeutics, Inc., priority 2019, published 2022) are described below.

In assay [1] the test system is HEK293T cells. Description: Surface expression of CD40L trimerization mutants, transfected HEK293T cells (FACS). Format: cell-based, human. The settings on record: transiently transfected HEK293T cells. The procedure: Mutations were engineered within CD40L payload to reduce the binding affinity of CD40L payload for the CD40L endogenously expressed by cells. Constructs OT-002078, OT-002079, OT-002080, OT-002081, OT-002082 were generated with the CD40L trimerization mutants. HEK293T cells were transiently transfected with the constructs and CD40L expression was measured by FACS.

Assay [2] concerns Nalm6-luc. As to the kind of experiment: Nalm6-luc tumor model, Bioluminescence Intensity (BLI). It counts as in vivo, mice. The settings on record: CD40L only T cells, no CAR+ number. How it is done: (§1) Increased expression of CD40L on CD19 positive CART cells may increase the efficacy of CAR+ T cells in vivo. To test this, 8-week old mice were injected with Nalm6-luc (1 million per mouse). On day 6, Nalm6 tumor burden was measured and mice were grouped to ensure that all groups had similar tumor sizes. Body weight and Bioluminescence Intensity (BLI) were measured twice a week. Blood and plasma were also collected for cytokine analysis, CD40L and IL12.

Assay [3] relates to Jurkat cells. Description: In vivo CD40L regulation in Jurkat cells harvested from bone marrow of NSG mice. As to conditions: constitutive construct, Jurkat cells from bone marrow, day 16. The source says:
Jurkat cells stably expressing OT-001661, OT-002034 were intravenously infused into 8-week old NSG mice (20 million cells per mouse). Starting by day 15, mice were orally dosed according to the study design shown in Table 42 and Jurkat cells were harvested on day 16 from the bone marrow and analyzed by FACS. In Tables 41 and 42, TMP refers to Trimethoprim and all dosing is relative to “0 hr” time point on day 16. The results are shown in Table 43 and Table 44 where “EV” refers to empty vector control.

Assay [4] relates to hCD45+ cells. As to the kind of experiment: hCD45+ cells in blood by FACS 14 days after T-cell infusion. The settings on record: cell number not given. It counts as in vivo, mice. How it is done: as §1
Human cells were analyzed by FACS (hCD45+) from the blood 14 days after T-cell infusion, which equals 21 days after tumor implant. The results are shown in Table 22 where M indicates million.

For assay [5], the system named is Jurkat cells. Description: CD40L shedding ELISA of supernatant, Jurkat cells with or without CD40-Fc receptor. It counts as cell-based. The arrangement: CD40L levels in supernatant: unit not given here. The settings on record: 6 hours. The procedure: Sheddases e.g. ADAM10/17 present in the tumor microenvironment can cleave CD40L thereby preventing the successful activation of CD40 by CD40L. […] OT-001669 which has a deletion of amino acids 1-13 of CD40L was designed to reduce internalization and OT-001668 which has a deletion of amino acids 110-116 of CD40L was designed to remove the ADAM10/17 sites. Jurkat cells stably expressing the full length construct OT-001661, OT-001669, or OT-001668 were cultured for 6 hours with 1.25 μg/ml recombinant human (h) or mouse (m) CD40-Fc receptor or left untreated and tested using an ELISA assay (Table 15).

In assay [6] the test system is Jurkat cells. Description: DHFR regulated CD40L expression, transduced Jurkat cells (flow cytometry). Format: cell-based. The procedure:
Jurkat cells were transduced with lentiviruses corresponding to OT-001662, OT-001962, OT-001961, OT-001963. 24 hours after transduction, cells were split and treated with DMSO or 50 μM TMP for another 24 hours until flow cytometry-based analysis. The results are shown in Table 37 where SR indicates stabilization ration.

Assay [7] concerns the target CD40 (UniProt P25942). As to the kind of experiment: cell-based or functional assay.
Assay [8] deals with Jurkat cells. Description: Linker length, ER regulated CD40L, % CD40L positive Jurkat cells. Format: cell-based. The procedure: Jurkat cells were lentivirally transduced and 24 hours after transduction were treated with DMSO or 1 μM Bazedoxifene for another 24 hours and analyzed by flow cytometry for surface expression of CD40L. […] In Table 33, SR indicates stabilization ratio.

Where “and” joins values, the source holds several entries; their conditions need not be identical. Equal entries are not always repeated.

Sequence of CD40 (P25942 21-277 limits assumed): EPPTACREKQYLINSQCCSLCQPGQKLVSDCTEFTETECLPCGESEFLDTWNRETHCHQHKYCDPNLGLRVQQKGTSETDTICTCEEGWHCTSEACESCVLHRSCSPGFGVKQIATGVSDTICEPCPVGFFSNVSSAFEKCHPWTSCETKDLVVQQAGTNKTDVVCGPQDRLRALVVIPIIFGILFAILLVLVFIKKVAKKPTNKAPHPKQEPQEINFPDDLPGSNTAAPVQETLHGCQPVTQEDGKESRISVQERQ

B1: OT-001661: constitutively expressed full length CD40L construct (protein)
chain: MHMIETYNQTSPRSAATGLPISMKIFMYLLTVFLITQMIGSALFAVYLHRRLDKIEDERNLHEDFVFMKTIQRCNTGERSLSLLNCEEIKSQFEGFVKDIMLNKEETKKENSFEMQKGDQNPQIAAHVISEASSKTTSVLQWAEKGYYTMSNNLVTLENGKQLTVKRQGLYYIYAQVTFCSNREASSQAPFIASLCLKSPGRFERILLRAANTHSSAKPCGQQSIHLGGVFELQPGASVFVNVTDPSQVSHGTGFTSFGLLKL
As to B1, in assay [1], the “% CD40L positive” value is listed as 43.3%. In addition, the “Average BLI values” in assay [2] (Day 6 (before T cell injection on day 7)) is recorded as 2.04E+06; in assay [2] (Day 13) it was 2.69E+08; in assay [2] (Day 20), 2.52E+09; in assay [2] (Day 25), 5.99E+09; in assay [2] (Day 28), 1.04E+10. For the same molecule, the “CD40L MFI values” is 586.5 in assay [3] (Average); 507 and 572 and 660 and 607 in assay [3] (individual mice). Moreover, the “Percent CD40L positive cells” value in assay [3] (Average) was 58.9%; in assay [3] (individual mice) it was 52.5% and 57.5% and 64.2% and 61.4%. Besides, in assay [4], the “Percentage hCD45+ cells, Average” value came to 0.002%. For the same molecule, the “Percentage hCD45+ cells, Individual values” in assay [4] is 0.00249% and 0.00331% and 0.00198% and 0%. For the same molecule, the “CD40L levels in supernatant” value in assay [5] (1.25 μg/ml hCD40-Fc) was found to be 3599.72; in assay [5] (1.25 μg/ml mCD40-Fc), 2589.21; in assay [5] (Untreated) it was 1382.06.

B2: OT-001662: CD40L construct with ecDHFR (M1del, R12Y, Y100I) DRD, ligand TMP (protein)
chain: MSGISLIAALAVDYVIGMENAMPWNLPADLAWFKRNTLNKPVIMGRHTWESIGRPLPGRKNIILSSQPGTDDRVTWVKSVDEAIAACGDVPEIMVIGGGRVIEQFLPKAQKLYLTHIDAEVEGDTHFPDYEPDDWESVFSEFHDADAQNSHSYCFEILERRHMIETYNQTSPRSAATGLPISMKIFMYLLTVFLITQMIGSALFAVYLHRRLDKIEDERNLHEDFVFMKTIQRCNTGERSLSLLNCEEIKSQFEGFVKDIMLNKEETKKENSFEMQKGDQNPQIAAHVISEASSKTTSVLQWAEKGYYTMSNNLVTLENGKQLTVKRQGLYYIYAQVTFCSNREASSQAPFIASLCLKSPGRFERILLRAANTHSSAKPCGQQSIHLGGVFELQPGASVFVNVTDPSQVSHGTGFTSFGLLKL
On to B2, for which the “% CD40L expression” value in assay [6] (TMP (50 μM)) was determined as 90%; in assay [6] (Vehicle (DMSO)), 1%. In assay [6] (TMP (50 μM) versus Vehicle), this molecule came in with an SR of 90.

B3: OT-001666 (Met; ER (305-549 of WT, L384M, N413D, M421G, G521R, Y537S); Histidine; CD40L; stop) (ligand)
chain: MSLALSLTADQMVSALLDAEPPILYSEYDPTRPFSEASMMGLLTNLADRELVHMINWAKRVPGFVDLTLHDQVHLLECAWMEILMIGLVWRSMEHPGKLLFAPNLLLDRDQGKCVEGGVEIFDMLLATSSRFRMMNLQGEEFVCLKSIILLNSGVYTFLSSTLKSLEEKDHIHRVLDKITDTLIHLMAKAGLTLQQQHQRLAQLLLILSHIRHMSNKRMEHLYSMKCKNVVPLSDLLLEMLDAHRLHMIETYNQTSPRSAATGLPISMKIFMYLLTVFLITQMIGSALFAVYLHRRLDKIEDERNLHEDFVFMKTIQRCNTGERSLSLLNCEEIKSQFEGFVKDIMLNKEETKKENSFEMQKGDQNPQIAAHVISEASSKTTSVLQWAEKGYYTMSNNLVTLENGKQLTVKRQGLYYIYAQVTFCSNREASSQAPFIASLCLKSPGRFERILLRAANTHSSAKPCGQQSIHLGGVFELQPGASVFVNVTDPSQVSHGTGFTSFGLLKL
For the molecule B3, the SEAP reporter of HEK-Blue CD40 cells co-cultured 24 hours with transduced Jurkat cells plus 1 µM Bazedoxifene, given as Soluble CD40L (pg/ml) against a recombinant soluble CD40L standard in assay [7] is 1820 pg/mL. The “Percent of Jurkat cells expressing CD40L” value stood at 30% in assay [8] (1 μM Bazedoxifene) and 10% in assay [8] (DMSO). The SR in assay [8] (1 μM Bazedoxifene versus DMSO, % CD40L positive Jurkat cells) was determined as 3.
